Source: patent publication US20240376151A1, “STAPLED PEPTIDES AND METHODS THEREOF” (FOG PHARMACEUTICALS, INC., priority 2022, published 2024)
Ends that are not written are not given here.

Molecular target: T1, beta-catenin (Homo sapiens, UniProt P35222)
T1 construct: made in house; host or cells: E. coli BL21 (DE3) pLysS
T1 sequence (P35222 134-665): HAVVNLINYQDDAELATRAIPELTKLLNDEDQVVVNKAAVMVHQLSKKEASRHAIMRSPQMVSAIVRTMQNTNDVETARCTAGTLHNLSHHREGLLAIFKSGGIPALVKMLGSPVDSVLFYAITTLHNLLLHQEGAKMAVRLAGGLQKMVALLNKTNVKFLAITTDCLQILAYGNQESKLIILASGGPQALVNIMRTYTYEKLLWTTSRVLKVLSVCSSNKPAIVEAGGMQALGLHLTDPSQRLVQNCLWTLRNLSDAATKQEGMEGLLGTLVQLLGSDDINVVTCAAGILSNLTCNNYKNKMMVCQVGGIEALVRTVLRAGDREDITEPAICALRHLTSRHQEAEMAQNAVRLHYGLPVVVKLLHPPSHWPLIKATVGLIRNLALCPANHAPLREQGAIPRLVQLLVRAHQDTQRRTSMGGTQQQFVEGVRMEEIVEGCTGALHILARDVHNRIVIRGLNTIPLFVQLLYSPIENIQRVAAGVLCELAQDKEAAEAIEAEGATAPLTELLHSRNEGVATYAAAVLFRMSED
Assay: Phage Library Screening with NGS, beta-catenin
Assay type: binding
Conditions: for Target Concentration 10 (phage screen NGS readout): beta-catenin target concentration 10; for Target Concentration 10 (phage screen NGS readout) / Target Concentration 30 (phage screen NGS readout) / Target Concentration 100 (phage screen NGS readout) / Target Concentration 300 (phage screen NGS readout): no competitor; for Target Concentration 30 (phage screen NGS readout): beta-catenin target concentration 30; for Target Concentration 100 (phage screen NGS readout): beta-catenin target concentration 100; for Target Concentration 300 (phage screen NGS readout): beta-catenin target concentration 300; for Target Concentration 1000 (phage screen NGS readout): beta-catenin target concentration 1000

| Sequence | Target Concentration BLANK (phage screen NGS readout) (first column) | Target Concentration BLANK (phage screen NGS readout) (fourth column) | Target Concentration BLANK (phage screen NGS readout) (second column) | Target Concentration BLANK (phage screen NGS readout) (third column) | Target Concentration 10 (phage screen NGS readout) | Target Concentration 30 (phage screen NGS readout) | Target Concentration 100 (phage screen NGS readout) | Target Concentration 300 (phage screen NGS readout) | Target Concentration 1000 (phage screen NGS readout) (first 1000 column) | Target Concentration 1000 (phage screen NGS readout) (second 1000 column) |
| --- | --- | --- | --- | --- | --- | --- | --- | --- | --- | --- |
| DPADEDCILAAHVCRHF | 0 | 0 | 0 | 0 | 0 | 6 | 11 | 29 | 25 | 21 |
| DPADNECILAAHICTLA | 0 | 0 | 0 | 0 | 0 | 5 | 24 | 36 | 45 | 30 |
| DPADTECILAAHFCHYF | 0 | 0 | 2 | 0 | 0 | 1 | 39 | 81 | 78 | 49 |
| DPADWICEHAALTCQEF | 0 | 0 | 1 | 0 | 0 | 2 | 6 | 15 | 12 | 14 |
| DPADYDCILAAHICTNI | 0 | 0 | 0 | 0 | 2 | 18 | 70 | 147 | 118 | 122 |
| DPADYECVIAAQVCQHF (not fully specified; cysteine pairing not given here) | 0 | 0 | 4 | 0 | 0 | 1 | 11 | 18 | 19 | 14 |
| DPAEADCMMAAHICSNI | 0 | 0 | 0 | 0 | 0 | 0 | 21 | 15 | 46 | 22 |
| DPAEAECILAAHICNIS | 0 | 0 | 0 | 0 | 10 | 0 | 37 | 39 | 51 | 52 |
| DPAEAICILAAHECWWD | 0 | 0 | 0 | 0 | 19 | 38 | 139 | 235 | 322 | 228 |
| DPAEFYCEMAAVHCELL | 0 | 0 | 0 | 0 | 2 | 1 | 17 | 99 | 61 | 107 |
| DPAEHDCMLAAHFCRHF | 0 | 0 | 2 | 0 | 8 | 55 | 242 | 194 | 337 | 260 |
| DPAEIICYEAAFLCQYQ | 0 | 0 | 0 | 0 | 0 | 0 | 0 | 15 | 38 | 26 |
| DPAELACEWAAIHCELV | 0 | 0 | 0 | 0 | 0 | 2 | 41 | 94 | 69 | 75 |
| DPAENTCSWAAEHCALV | 0 | 0 | 0 | 0 | 0 | 0 | 0 | 26 | 28 | 31 |
| DPAESDCILAAYICYVE | 0 | 0 | 2 | 0 | 0 | 1 | 22 | 51 | 69 | 40 |
| DPAEVDCIMAAHICVWD | 0 | 0 | 0 | 0 | 0 | 0 | 31 | 42 | 40 | 51 |
| DPAEVECMLAAHVCRAF | 0 | 0 | 0 | 0 | 8 | 26 | 67 | 109 | 142 | 130 |
| DPAEWACEHAALTCWDQ | 1 | 0 | 4 | 0 | 6 | 24 | 148 | 448 | 431 | 449 |
